The record followed here is patent US20250242021A1 (published 2025).

The target of assay [1] is T1, minor histocompatibility antigen (miHA) HA-1, 'H' epitope peptide on HLA-A*02:06 (human).
T1 peptide: VLHDDLLEA
The experiment in a line: activation reporter or marker.

The target of assay [2] is T2, minor histocompatibility antigen (miHA) HA-1, 'H' epitope peptide on HLA-A*02:01 (human).
T2 peptide: VLHDDLLEA
Put plainly: killing.

In assay [3] the target is T3, minor histocompatibility antigen (miHA) HA-1, 'R' epitope (non-target allelic variant) peptide on HLA-A*02:01 (human).
T3 peptide: VLRDDLLEA
Put plainly: killing.

B1: anti-HA-1 'H' epitope TCR (TCR, V domains shown)
Valpha: AQSVAQPEDQVNVAEGNPLTVKCTYSVSGNPYLFWYVQYPNRGLQFLLKYITGDNLVKGSYGFEAEFNKSQTSFHLKKPSALVSDSALYFCAVRAPTSGTYKYIFGTGTRLKVLA
Vbeta: DTGVSQDPRHKITKRGQNVTFRCDPISEHNRLYWYRQTLGQGPEFLTYFQNEAQLEKSRLLSDRFSAERPKGSFSTLEIQRTEQGDSAMYLCASSLVSGNEQFFGPGTRLTVL
As to B1, the binding result is “recognises” in assay [1], “recognises” in assay [2] and “no recognition” in assay [3].
